Where “and” joins values, the source holds several entries; their conditions need not be identical. Equal values may be shown once.
Columns and labels:
SC-K^d -15 (mouse) [1] = biological target: SC-K^d -15 (mouse) (UniProt P01887); assay: direct peptide binding assay, peptide coated at 10 µg/ml pH 9.6, 35S-labeled SC-Kd, input 6000 cpm, no coated peptide 228 and 223, duplicate
[2] = biological target: K^d molecules isolated from the spleen of BALB/c mice (mouse) (UniProt P01887)
SC-K^d -15 (mouse) [3] = biological target: SC-K^d -15 (mouse) (UniProt P01887)
[4] = biological target: K^d molecules isolated from the spleen of BALB/c mice (mouse) (UniProt P01887); assay: direct peptide binding assay, peptide coated at 10 µg/ml pH 9.6, 125I-labeled H-2K, input 100000 cpm, no coated peptide 1471 and 1595, duplicate
HLA-DR3 (human) [5] = assay: direct peptide binding assay, peptide coated at 30 µg/ml pH 9.6, 125I-labeled HLA-DR3, input 200000 cpm, duplicate
SC-K^d -15 (mouse) [6] = biological target: SC-K^d -15 (mouse) (UniProt P01887); assay: direct peptide binding assay, peptide coated at 30 µg/ml pH 9.6, 35S-labeled SC-Kd, input 10,000 cpm, duplicate
HLA-DRw13 (human) [7] = assay: direct peptide binding assay, peptide coated at 30 µg/ml pH 9.6, 125I-labeled HLA-DRw13, input 200000 cpm, duplicate
SC-K^d -15 [8] = biological target: T1, SC-K^d -15 (Mus musculus, UniProt P01887+P01902); assay: Direct peptide binding assay, solid phase, with purified 35S-labeled SC-Kd; conditions: for binding of peptide to SC-K^d -15 (in words): direct binding assay
T1 construct: connecting residue 276 of K^d heavy chain to the first residue of β2 -microglobulin through spacers; made in house
T1 sequence (P01902+P01887 with tags, fused parts or gaps): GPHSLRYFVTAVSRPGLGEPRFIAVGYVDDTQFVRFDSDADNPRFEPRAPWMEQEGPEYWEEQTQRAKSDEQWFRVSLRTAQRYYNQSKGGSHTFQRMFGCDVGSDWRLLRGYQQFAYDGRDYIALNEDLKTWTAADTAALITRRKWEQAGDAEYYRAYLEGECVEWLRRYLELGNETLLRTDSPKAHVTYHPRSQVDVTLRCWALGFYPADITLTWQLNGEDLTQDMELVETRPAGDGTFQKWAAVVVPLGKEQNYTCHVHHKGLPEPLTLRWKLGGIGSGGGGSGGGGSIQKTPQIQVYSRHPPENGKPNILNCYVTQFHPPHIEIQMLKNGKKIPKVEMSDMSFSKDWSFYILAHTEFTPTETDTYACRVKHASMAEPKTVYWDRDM
Description: (§1) Direct Peptide Binding Assay. Wells of microtiter plates are pretreated with 100 μl 2.5% glutaraldehyde in distilled water for 2 h at 20° C., washed with distilled water, and coated for 16 h at 4° C. with 100 μl of peptide diluted at 5 μg/ml either in carbonate-bicarbonate buffer, pH 9.6, or in PBS, pH 7.4 or pH 5.0. Remaining free sites are blocked by incubation for 2 h at 20° C. with BSA diluted 1% in PBS containing 0.05% Tween 20 (Tw) and 0.02% sodium azoture. After washing, purified ^125 I-HLA molecules (100 μl containing 1.5×10^5 cpm, 10^-9 M) diluted in PBS containing 1% BSA, 0.05% Tw, 0.02% sodium azoture, 1 mM PMSF, and 10 μg/ml trypsin inhibitor are added and incubated for 20 h at 20° C. After extensive washing, the radioactivity of each well is counted.
(§2) Inhibition Peptide Binding Assay. Concentrations of 0.1-100 μM of competitor peptides are incubated in tubes for 0-3 h at 20° C. with ^125 I-HLA (10^-9 M) diluted in PBS--BSA--Tw containing the protease inhibitors as mentioned above. […] After extensive washing, the radioactivity in each well is counted and the percent of inhibition is calculated.
(§3) COS-1 cells (usually 10^7 cells) were transfected with pSC-K^d -15 DNA, labeled and lysed as above. […] After the final wash in PBS, SC-K^d -15 was eluted from the matrix with an equal volume of 3M thiocyanate for 10 min on ice. After an overnight dialysis in PBS containing 0.1% NP40, 0.05% Tween and 0.2% BSA, SC-K^d -15 was used in direct binding test as below. Its purity was assessed by SDS-PAGE.
Peptides used in this study are described in Choppin et al. (Choppin, J., Martinon, F., Gomard, E., Bahraoui, E., Connan, F., Bouillot, F., and Levy, J.-P, J. Exp. Med., 1990. 172:889 and references therein), except for HLA-Cw3 and HLA-A24 described in Maryanski, J. Ll, Pala, P., Cerottini, J.-C, and Corradin, G., J. Exp. Med. 1988. 167:1391. Binding assays were performed as described in Choppin, J., Martinon, F., Gomard, E., Bahraoui, E., Connan, F., Bouillot, F., and Levy, J.-P, J. Exp. Med., 1990. 172:889. DR3, DRw13, and K^d molecules were also purified and iodinated as in Choppin, J., Martinon, F., Gomard, E., Bahraoui, E., Connan, F., Bouillot, F., and Levy, J.-P, J. Exp. Med., 1990. 172:889.
K^d molecules isolated from the spleen of BALB/c mice were then purified and iodinated. They were purified by affinity chromatography on a 20-8-4 mAb column and compared binding of peptides by the latter and by ^35 S-labeled SC-K^d -15 in the assay of Bouillot et al. (Bouillot, M., Choppin, J., Cornille, F., Martinon, F., Papo, T., Gomard, E., FournieZaluski, M.-C., and Levey, J.-P., Nature 1989. 339:473 and Choppin, J., Martinon, F., Gomard, E., Bahraoui, E., Connan, F., Bouillot, F., and Levy, J.-P, J. Exp. Med., 1990. 172:889).

SC-K^d -15 [9] = biological target: T1, SC-K^d -15; assay: as above; conditions: Table 10 (A), input 10,000 cpm, duplicates
HLA-DRw13 (human) [10] = assay: direct peptide binding assay, peptide coated at 10 µg/ml pH 5, 125I-labeled HLA-DRw13, input 200000 cpm, duplicate
SC-K^d -15 (mouse) [11] = biological target: SC-K^d -15 (mouse) (UniProt P01887); assay: direct peptide binding assay, peptide coated at 10 µg/ml pH 5, 35S-labeled SC-Kd, input 10,000 cpm, duplicate
HLA-DR3 (human) [12] = assay: direct peptide binding assay, peptide coated at 10 µg/ml pH 5, 125I-labeled HLA-DR3, input 200000 cpm, duplicate
HLA-DR3 = HLA-DR3 (Homo sapiens, UniProt P01903+P01911); assay: Direct peptide binding assay with purified 125I-labeled HLA-DR3 (positive control)
Description: (§4) Direct Peptide Binding Assay. Wells of microtiter plates are pretreated with 100 μl 2.5% glutaraldehyde in distilled water for 2 h at 20° C., washed with distilled water, […] buffer, pH 9.6, or in PBS, pH 7.4 or pH 5.0. Remaining free sites are blocked by incubation for 2 h at 20° C. with BSA diluted 1% in PBS containing 0.05% Tween 20 (Tw) and 0.02% sodium azoture. […] After extensive washing, the radioactivity of each well is counted.

DRw13 = DRw13 (Homo sapiens, UniProt P01903+P01911); assay: Direct peptide binding assay with purified 125I-labeled HLA-DRw13 (positive control)
Description: as §4

[13] = biological target: T2, K^d molecules isolated from the spleen of BALB/c mice (Mus musculus, UniProt P01902); assay: Direct peptide binding assay with purified 125I-labeled conventional K^d
T2 construct: K^d molecules isolated from the spleen of BALB/c mice; from tissue
T2 sequence (P01902 22-368): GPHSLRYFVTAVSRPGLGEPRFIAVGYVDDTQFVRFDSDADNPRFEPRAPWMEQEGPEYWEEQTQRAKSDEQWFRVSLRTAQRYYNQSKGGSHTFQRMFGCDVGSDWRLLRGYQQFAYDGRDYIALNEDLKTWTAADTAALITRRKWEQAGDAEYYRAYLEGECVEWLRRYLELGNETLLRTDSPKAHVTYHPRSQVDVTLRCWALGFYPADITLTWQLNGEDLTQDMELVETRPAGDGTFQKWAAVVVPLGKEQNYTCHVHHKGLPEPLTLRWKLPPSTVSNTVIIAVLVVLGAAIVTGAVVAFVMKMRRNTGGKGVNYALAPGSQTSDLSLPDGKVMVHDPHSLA
T2 sequence (P01887 21-119 partner): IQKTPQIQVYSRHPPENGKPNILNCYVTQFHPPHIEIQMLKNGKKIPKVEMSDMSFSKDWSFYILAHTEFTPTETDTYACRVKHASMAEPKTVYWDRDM
Description: as §1
as §2, with “calculated. […]” for “calculated.”

SC-K^d -15 (mouse) [14] = biological target: SC-K^d -15 (mouse) (UniProt P01887); assay: direct peptide binding assay, peptide coated at 5 µg/ml pH 9.6, 35S-labeled SC-Kd, input 6000 cpm, no coated peptide 228 and 223, duplicate
mAb 34-1-2 = assay: Immunoprecipitation of 35S-labeled SC-K^d molecules from transfected COS-1 cell extracts by mAb 34-1-2; format: binding
Description: as §3

[15] = Table 10 (A), input 200000 cpm, peptide 10 μg/ml, pH 5, duplicates

HLA-Cw3 170-182 (peptide)
cpm bound (SC-K^d -15 (mouse) [1]): 169 cpm and 117 cpm
cpm bound to coated env 312-327 in the presence of the competitor [2]: 15400 cpm and 15800 cpm
cpm bound to coated env 312-327 in the presence of the competitor (SC-K^d -15 (mouse) [3]): 367 cpm and 375 cpm
cpm bound [4]: 1340 cpm and 1380 cpm

HIV 1 Nef. 66-80 (peptide)
cpm bound (HLA-DR3 (human) [5]): 2320 cpm and 1820 cpm
cpm bound (SC-K^d -15 (mouse) [6]): 475 cpm and 397 cpm
cpm bound (HLA-DRw13 (human) [7]): 1390 cpm and 1290 cpm

IRIQRGPGRAFVTIGK [env 312-327]
35S-labeled SC-Kd bound to coated peptide (SC-K^d -15 [8]; Table 10 (B), input 6000 cpm, peptide 5 μg/ml, pH 9.6, duplicates): 390 cpm and 377 cpm
binding of peptide to SC-K^d -15 (in words) (SC-K^d -15 [8]): significant binding
35S-labeled SC-Kd bound to coated peptide (SC-K^d -15 [9]; peptide 30 μg/ml, pH 9.6): 750 cpm and 712 cpm

HIV 1 Vpr. 68-80 (peptide)
cpm bound (HLA-DRw13 (human) [10]): 21800 cpm and 20600 cpm
cpm bound to coated env 312-327 in the presence of the competitor [2]: 359 cpm and 409 cpm
cpm bound to coated env 312-327 in the presence of the competitor (SC-K^d -15 (mouse) [3]): 42 cpm and 41 cpm
cpm bound (SC-K^d -15 (mouse) [11]): 710 cpm and 621 cpm
cpm bound (HLA-DR3 (human) [12]): 18600 cpm and 18200 cpm

LFIHFRIGORHSR [vpr 68-80]
125I-labeled HLA-DR3 bound to coated peptide (HLA-DR3; [15]): 18582 cpm and 18245 cpm
binding of peptide to HLA-DR3 positive control (in words) (HLA-DR3; direct binding assay): significant binding
35S-labeled SC-Kd bound to coated env 312-327 in presence of the competing peptide (SC-K^d -15 [8]; Table 10 (B), competition, env 312-327 bound to plastic + labelled peptide as competitor, input 6000 cpm, duplicates): 42 cpm and 41 cpm
competition with env 312-327 peptide bound to plastic (in words) (SC-K^d -15 [8]; competition experiment, SC-K^d): competed efficiently
binding of peptide to SC-K^d -15 (in words) (SC-K^d -15 [8]): significant binding
125I-labeled HLA-DRw13 bound to coated peptide (DRw13; [15]): 21838 cpm and 20593 cpm
binding of peptide to DR213 positive control (in words) (DRw13; direct binding assay): significant binding
35S-labeled SC-Kd bound to coated peptide (SC-K^d -15 [9]; peptide 10 μg/ml, pH 5): 710 cpm and 621 cpm
125I-labeled H-2K bound to coated env 312-327 in presence of the competing peptide ([13]; Table 10 (B), competition, env 312-327 bound to plastic + labelled peptide as competitor, input 100000 cpm, duplicates): 359 cpm and 409 cpm
competition with env 312-327 peptide bound to plastic (in words) ([13]; competition experiment, K^d): competed efficiently

HLA-A24 170-182 (peptide)
cpm bound (SC-K^d -15 (mouse) [1]): 284 cpm
cpm bound [4]: 1060 cpm and 1300 cpm

HIV 1 Env. 312-327 (peptide)
cpm bound (HLA-DR3 (human) [5]): 3780 cpm
cpm bound (SC-K^d -15 (mouse) [6]): 750 cpm and 712 cpm
cpm bound (SC-K^d -15 (mouse) [14]): 390 cpm and 377 cpm
cpm bound (HLA-DRw13 (human) [7]): 22600 cpm

TYQRTRALVTG [NPR 147-158]
effect of added immunogenic peptide on immunoprecipitation of SC-K^d molecules (mAb 34-1-2): no effect
